The text below walks through data of US7514534.

The target in the assay is T1, MMP-26 (human).
T1 sequence: ASDF
Nature of the assay: cell-based or functional assay.

B1: D08 (antibody, human IgG4, V domains shown)
VH: EVQLLESGGGLVQPGGSLRLSCAASGFTFSFYAMWWVRQAPGKGLEWVSRIYSSGGKTWYADSVKGRFTISRDNSKNTLYLQMNSLRAEDTAVYYCARVGMSTYAFDIWGQGTMVTVSS
VL: DIQMTQSPSSLSASVGDRVTITCRASQSISDYLNWYQQKPGKAPDLLIYAASSLQSGVPSRFSGSGSGTDFTLTVSSLQPEDFATYFCQQSYSIPLTFGGGTKVEITR
With B1, the % Inhibition of JEG-3 cell invasion, 1 µg/ml (further test) amounted to 56%; the % Inhibition of JEG-3 cell invasion, 5 µg/ml (first test) was determined as 36%; the % Inhibition of JEG-3 cell invasion, 5 µg/ml (further test) came out at 50%; the % Inhibition of JEG-3 cell invasion, 25 µg/ml (first test) worked out at 35%. This molecule also registered a % Inhibition of JEG-3 cell invasion, 25 µg/ml (further test) of 76% and a % Inhibition of JEG-3 cell invasion, 50 µg/ml (further test) of 53%.

B2: C12 (antibody, V domains shown)
VH: EVQLLESGGGLVQPGGSLRLSCAASGFTFSAYNMMWVRQAPGKGLEWVSRIYPSGGYTLYADSVKGRFTISRDNSKNTLYLQMNSLRAEDTAVYYCARQKLMIRAVRPFDYWGQGTLVTVSS
VL: QSELTQPPSVSVSPAQTASITCSGDKLGDKYACWYQQKPGQSPVLVIYEDTKRPSGIPERFSGSNSGNTATLTISGTQVMDEADYYCQVWDSSTAVFGGGTKLTVLG
B2 returned a % Inhibition of JEG-3 cell invasion, 1 µg/ml (further test) of 36%; a % Inhibition of JEG-3 cell invasion, 5 µg/ml (first test) of 49%; a % Inhibition of JEG-3 cell invasion, 5 µg/ml (further test) of 35%; a % Inhibition of JEG-3 cell invasion, 25 µg/ml (first test) of 38%. The % Inhibition of JEG-3 cell invasion, 25 µg/ml (further test) amounted to 49% and the % Inhibition of JEG-3 cell invasion, 50 µg/ml (further test) was determined as 27%.

B3: D04 (antibody, human IgG4, V domains shown)
VH: EVQLLESGGGLVQPGGSLRLSCAASGFTFSDYQMMWVRQAPGKGLEWVSRISPSGGMTRYADSVKGRFTISRDNSKNTLYLPMNSLRAEDTAVYYCARSGPYYFDYWGQGTLVTVSS
VL: DIQMTQSPSSLSASVGDRVAITCRASQSIDTYLNWYQQKPGKAPKLLIYAASKLEDGVPSRFSGSGTGTDFTLTIRSLQPEDFASYFCQQSYSSPGITFGPGTKVEIKR
For B3, the % Inhibition of JEG-3 cell invasion, 1 µg/ml (further test) was 47%; the % Inhibition of JEG-3 cell invasion, 5 µg/ml (first test) is 38%; the % Inhibition of JEG-3 cell invasion, 5 µg/ml (further test) turned out to be 34%; the % Inhibition of JEG-3 cell invasion, 25 µg/ml (first test) amounted to 34%. Moreover, the % Inhibition of JEG-3 cell invasion, 25 µg/ml (further test) amounted to 45% and the % Inhibition of JEG-3 cell invasion, 50 µg/ml (further test) was 52%.

B4: D07 (antibody, human IgG4, V domains shown)
VH: EVQLLESGGGLVQPGGSLRLSCAASGFTFSEYNMFWVRQAPGKGLEWVSYIYSSGGSTDYADSVKGRFTISRDNSKNTLYLQMNSLRAEDTAVYYCARVGIAARPFDPWGQGTLVTVSS
VL: QSELTQPASVSGSPGQSITISCTGTNSDIGGYNYVSWYQQHPGKVPKLLIFEVNNRPSGVSSRFSGSKSGDTASLTISGLQPEDEAVYYCGSFTVSVTYVFGTGTKVTVLG
For B4, the % Inhibition of JEG-3 cell invasion, 5 µg/ml (first test) is 21% and the % Inhibition of JEG-3 cell invasion, 25 µg/ml (first test) amounted to 36%.

B5: D06 (antibody, human IgG4, V domains shown)
VH: EVQLLESGGGLVQPGGSLRLSCAASGFTFSGYIMEWVRQAPGKGLEWVSVIVSSGGFTMYADSVKGRFTISRDNSKNTLYLQMNSLRAEDTAVYYCARVGDSKGGYYLDYWGQGTLVTVSS
VL: DIQMTQSPSSLSASVGDRVTITCRTSQIINTYLNWYQQKPGKAPKLLIYAASTLQGGVPSRFSGSGSGTDFTLTIKSLQPDDFATYYCQQSYTSPRTFGQGTKVEIKR
In turn, B5 showed a % Inhibition of JEG-3 cell invasion, 5 µg/ml (first test) of 0% and a % Inhibition of JEG-3 cell invasion, 25 µg/ml (first test) of 35%.

B6: D02 (antibody, human IgG4, V domains shown)
VH: EVQLLESGGGLVQPGGSLRLSCAASGFTFSWYDMAWVRQAPGKGLEWVSRIVPSGGHTSYADSVKGRFTISRDNFKNTLYLQMNSLRAEDTAVYYCARRASRPEFFDYWGQGALVTVSS
VL: DIQMTQSPSFLSASVGDRVTITCRASQGISTYLAWYQQKPGKAPKVLIYTASTLQSGVPSRFSGSGSGTEFTLTISSLQPEDFATYYCQQSYITPPEVTFGPGTKVDIKR
B6 returned a % Inhibition of JEG-3 cell invasion, 5 µg/ml (first test) of 36% and a % Inhibition of JEG-3 cell invasion, 25 µg/ml (first test) of 25%.
